Test results as given in patent publication US20220056104A1 (Janssen / Centocor, published 2022).

T1: Recombinant DR3-Fc (R&D Systems, cat. #943-D3) (UniProt Q93038 25-199, limits assumed)
T1 construct: dimeric MW~92 kDa; also called DR3 receptor; Fc-DR3; not shown: Fc part of the bought fusion
T1 sequence (looked up): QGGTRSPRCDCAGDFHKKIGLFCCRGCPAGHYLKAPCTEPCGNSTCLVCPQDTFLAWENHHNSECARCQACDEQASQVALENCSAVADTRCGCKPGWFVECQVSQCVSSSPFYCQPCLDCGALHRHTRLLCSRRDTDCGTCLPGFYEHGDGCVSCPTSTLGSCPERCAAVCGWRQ

T2: DcR3 (UniProt O95407 30-300, limits assumed)
T2 construct: the construct is not described; also called decoy receptor DcR3; TNFRSF6B
T2 sequence (looked up): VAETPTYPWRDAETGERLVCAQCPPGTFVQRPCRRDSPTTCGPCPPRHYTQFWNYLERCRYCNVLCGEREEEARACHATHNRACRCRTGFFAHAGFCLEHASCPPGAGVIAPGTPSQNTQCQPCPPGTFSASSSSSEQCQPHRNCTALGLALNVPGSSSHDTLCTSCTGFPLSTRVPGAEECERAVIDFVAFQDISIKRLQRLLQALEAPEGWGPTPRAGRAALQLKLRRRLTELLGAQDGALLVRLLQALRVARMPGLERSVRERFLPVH

B1: TL1W24 (His-TEV-hTL1A 72-251 F209A) (ligand)
chain: HHHHHHENLYFQGLKGQEFAPSHQQVYAPLRADGDKPRAHLTVVRQTPTQHFKNQFPALHWEHELGLAFTKNRMNYTNKFLLIPESGDYFIYSQVTFRGMTSECSEIRQAGRPNKPDSITVVITKVTDSYPEPTQLLMGTKSVCEVGSNWAQPIYLGAMFSLQEGDKLMVNVSDISLVDYTKEDKTFFGAFLL
notes: also called TL1W24 (F209A)
B2: TL1W108 (His-TEV-TL1A S187A) (ligand)
chain: HHHHHHENLYFQGLKGQEFAPSHQQVYAPLRADGDKPRAHLTVVRQTPTQHFKNQFPALHWEHELGLAFTKNRMNYTNKFLLIPESGDYFIYSQVTFRGMTSECSEIRQAGRPNKPDSITVVITKVTDAYPEPTQLLMGTKSVCEVGSNWFQPIYLGAMFSLQEGDKLMVNVSDISLVDYTKEDKTFFGAFLL
notes: also called TL1W108 (S187A)
B3: TL1W87 (His-TEV-TL1A G124D) (ligand)
chain: HHHHHHENLYFQGLKGQEFAPSHQQVYAPLRADGDKPRAHLTVVRQTPTQHFKNQFPALHWEHELDLAFTKNRMNYTNKFLLIPESGDYFIYSQVTFRGMTSECSEIRQAGRPNKPDSITVVITKVTDSYPEPTQLLMGTKSVCEVGSNWFQPIYLGAMFSLQEGDKLMVNVSDISLVDYTKEDKTFFGAFLL
notes: also called TL1W87 (G124D)
B4: TL1W46 (His-TEV-TL1A T239W) (ligand)
chain: HHHHHHENLYFQGLKGQEFAPSHQQVYAPLRADGDKPRAHLTVVRQTPTQHFKNQFPALHWEHELGLAFTKNRMNYTNKFLLIPESGDYFIYSQVTFRGMTSECSEIRQAGRPNKPDSITVVITKVTDSYPEPTQLLMGTKSVCEVGSNWFQPIYLGAMFSLQEGDKLMVNVSDISLVDYWKEDKTFFGAFLL
notes: also called TL1W46 (T239W)
B5: TL1W86 (His-TEV-TL1A G124K) (ligand)
chain: HHHHHHENLYFQGLKGQEFAPSHQQVYAPLRADGDKPRAHLTVVRQTPTQHFKNQFPALHWEHELKLAFTKNRMNYTNKFLLIPESGDYFIYSQVTFRGMTSECSEIRQAGRPNKPDSITVVITKVTDSYPEPTQLLMGTKSVCEVGSNWFQPIYLGAMFSLQEGDKLMVNVSDISLVDYTKEDKTFFGAFLL
notes: also called TL1W86 (G124K)
B6: TL1W133 (His-TEV-TL1A T239F) (ligand)
chain: HHHHHHENLYFQGLKGQEFAPSHQQVYAPLRADGDKPRAHLTVVRQTPTQHFKNQFPALHWEHELGLAFTKNRMNYTNKFLLIPESGDYFIYSQVTFRGMTSECSEIRQAGRPNKPDSITVVITKVTDSYPEPTQLLMGTKSVCEVGSNWFQPIYLGAMFSLQEGDKLMVNVSDISLVDYFKEDKTFFGAFLL
notes: also called TL1W133 (T239F)
B7: TL1W135 (His-TEV-TL1A K240A) (ligand)
chain: HHHHHHENLYFQGLKGQEFAPSHQQVYAPLRADGDKPRAHLTVVRQTPTQHFKNQFPALHWEHELGLAFTKNRMNYTNKFLLIPESGDYFIYSQVTFRGMTSECSEIRQAGRPNKPDSITVVITKVTDSYPEPTQLLMGTKSVCEVGSNWFQPIYLGAMFSLQEGDKLMVNVSDISLVDYTAEDKTFFGAFLL
notes: also called TL1W135 (K240A)
B8: TL1W128 (His-TEV-TL1A Y238S) (ligand)
chain: HHHHHHENLYFQGLKGQEFAPSHQQVYAPLRADGDKPRAHLTVVRQTPTQHFKNQFPALHWEHELGLAFTKNRMNYTNKFLLIPESGDYFIYSQVTFRGMTSECSEIRQAGRPNKPDSITVVITKVTDSYPEPTQLLMGTKSVCEVGSNWFQPIYLGAMFSLQEGDKLMVNVSDISLVDSTKEDKTFFGAFLL
notes: also called TL1W128 (Y238S)
B9: TL1W33 (E241L) (ligand)
chain: HHHHHHENLYFQGLKGQEFAPSHQQVYAPLRADGDKPRAHLTVVRQTPTQHFKNQFPALHWEHELGLAFTKNRMNYTNKFLLIPESGDYFIYSQVTFRGMTSECSEIRQAGRPNKPDSITVVITKVTDSYPEPTQLLMGTKSVCEVGSNWFQPIYLGAMFSLQEGDKLMVNVSDISLVDYTKLDKTFFGAFLL
notes: no entry of the listing holds E241L; also called E241L variant of His-TL1A
B10: TL1W91 (His-TEV-TL1A R156E) (ligand)
chain: HHHHHHENLYFQGLKGQEFAPSHQQVYAPLRADGDKPRAHLTVVRQTPTQHFKNQFPALHWEHELGLAFTKNRMNYTNKFLLIPESGDYFIYSQVTFEGMTSECSEIRQAGRPNKPDSITVVITKVTDSYPEPTQLLMGTKSVCEVGSNWFQPIYLGAMFSLQEGDKLMVNVSDISLVDYTKEDKTFFGAFLL
notes: also called TL1W91 (R156E)
B11: TL1W134 (His-TEV-TL1A T239K) (ligand)
chain: HHHHHHENLYFQGLKGQEFAPSHQQVYAPLRADGDKPRAHLTVVRQTPTQHFKNQFPALHWEHELGLAFTKNRMNYTNKFLLIPESGDYFIYSQVTFRGMTSECSEIRQAGRPNKPDSITVVITKVTDSYPEPTQLLMGTKSVCEVGSNWFQPIYLGAMFSLQEGDKLMVNVSDISLVDYKKEDKTFFGAFLL
notes: also called TL1W134 (T239K)
B12: TL1W130 (His-TEV-TL1A Y238R) (ligand)
chain: HHHHHHENLYFQGLKGQEFAPSHQQVYAPLRADGDKPRAHLTVVRQTPTQHFKNQFPALHWEHELGLAFTKNRMNYTNKFLLIPESGDYFIYSQVTFRGMTSECSEIRQAGRPNKPDSITVVITKVTDSYPEPTQLLMGTKSVCEVGSNWFQPIYLGAMFSLQEGDKLMVNVSDISLVDRTKEDKTFFGAFLL
notes: also called TL1W130 (Y238R)
B13: TL1W139 (His-TEV-TL1A E241Q) (ligand)
chain: HHHHHHENLYFQGLKGQEFAPSHQQVYAPLRADGDKPRAHLTVVRQTPTQHFKNQFPALHWEHELGLAFTKNRMNYTNKFLLIPESGDYFIYSQVTFRGMTSECSEIRQAGRPNKPDSITVVITKVTDSYPEPTQLLMGTKSVCEVGSNWFQPIYLGAMFSLQEGDKLMVNVSDISLVDYTKQDKTFFGAFLL
notes: also called TL1W139 (E241Q)
B14: TL1W88 (His-TEV-TL1A R156A) (ligand)
chain: HHHHHHENLYFQGLKGQEFAPSHQQVYAPLRADGDKPRAHLTVVRQTPTQHFKNQFPALHWEHELGLAFTKNRMNYTNKFLLIPESGDYFIYSQVTFAGMTSECSEIRQAGRPNKPDSITVVITKVTDSYPEPTQLLMGTKSVCEVGSNWFQPIYLGAMFSLQEGDKLMVNVSDISLVDYTKEDKTFFGAFLL
notes: also called TL1W88 (R156A)
B15: TL1W83 (His-TEV-TL1A E120K) (ligand)
chain: HHHHHHENLYFQGLKGQEFAPSHQQVYAPLRADGDKPRAHLTVVRQTPTQHFKNQFPALHWKHELGLAFTKNRMNYTNKFLLIPESGDYFIYSQVTFRGMTSECSEIRQAGRPNKPDSITVVITKVTDSYPEPTQLLMGTKSVCEVGSNWFQPIYLGAMFSLQEGDKLMVNVSDISLVDYTKEDKTFFGAFLL
notes: also called TL1W83 (E120K)
B16: TL1W89 (His-TEV-TL1A R156Y) (ligand)
chain: HHHHHHENLYFQGLKGQEFAPSHQQVYAPLRADGDKPRAHLTVVRQTPTQHFKNQFPALHWEHELGLAFTKNRMNYTNKFLLIPESGDYFIYSQVTFYGMTSECSEIRQAGRPNKPDSITVVITKVTDSYPEPTQLLMGTKSVCEVGSNWFQPIYLGAMFSLQEGDKLMVNVSDISLVDYTKEDKTFFGAFLL
notes: also called TL1W89 (R156Y)
B17: TL1W101 (His-TEV-TL1A S176N) (ligand)
chain: HHHHHHENLYFQGLKGQEFAPSHQQVYAPLRADGDKPRAHLTVVRQTPTQHFKNQFPALHWEHELGLAFTKNRMNYTNKFLLIPESGDYFIYSQVTFRGMTSECSEIRQAGRPNKPDNITVVITKVTDSYPEPTQLLMGTKSVCEVGSNWFQPIYLGAMFSLQEGDKLMVNVSDISLVDYTKEDKTFFGAFLL
notes: also called TL1W101 (S176N)
B18: TL1W27 (His-TEV-hTL1A 72-251 T239E) (ligand)
chain: HHHHHHENLYFQGLKGQEFAPSHQQVYAPLRADGDKPRAHLTVVRQTPTQHFKNQFPALHWEHELGLAFTKNRMNYTNKFLLIPESGDYFIYSQVTFRGMTSECSEIRQAGRPNKPDSITVVITKVTDSYPEPTQLLMGTKSVCEVGSNWFQPIYLGAMFSLQEGDKLMVNVSDISLVDYEKEDKTFFGAFLL
notes: also called TL1W27 (T239E)
B19: TL1W138 (His-TEV-TL1A K240D) (ligand)
chain: HHHHHHENLYFQGLKGQEFAPSHQQVYAPLRADGDKPRAHLTVVRQTPTQHFKNQFPALHWEHELGLAFTKNRMNYTNKFLLIPESGDYFIYSQVTFRGMTSECSEIRQAGRPNKPDSITVVITKVTDSYPEPTQLLMGTKSVCEVGSNWFQPIYLGAMFSLQEGDKLMVNVSDISLVDYTDEDKTFFGAFLL
notes: also called TL1W138 (K240D)

The binders below were run against T1, Recombinant DR3-Fc (R&D Systems, cat. …) (assay: ELISA, DR3-Fc immobilized).
Procedure: All ELISA-based measurements were collected in triplicate, and error values report the standard error between measurements. Recombinant DR3-Fc (R&D Systems, cat. #943-D3), dimeric MW˜92 kDa, was non-specifically immobilized onto plates (Nunc maxisorp, cat. #436110) in 100 μL DR3-Fc, diluted to 10 μg/mL onto a 96-well White Maxisorp plate (Nunc, cat #436110) (O/N, 4° C.). Plates were block for 1 hour at room temperature with 250 μl/well of casein buffer and blocking buffer was removed. 50 μL of TL1A variants were diluted in StartingBlock PBS (Thermo Fisher Scientific), at 25 μg/mL, diluting 3× over each well, according to the plate map description for 20160623) per well on a 96-well White Maxisorp plate (Nunc, cat #: 436110) (overnight at 4° C.).
Plates were washed three times with TBST. 100 μl/well polyclonal rabbit anti-human TL1A-biotin antibody (diluted 1:1000 in Starting Block PBS) was added and plates were incubated for 1 hour at room temperature with shaking at 150 rpm. TL1A-biotin antibody was removed and 100 μl/well streptavidin-HRP conjugate (diluted 1:10,000 in Starting Block PBS) was added to plates. Plates were incubated for 1 hour at room temperature with shaking at 150 rpm. Plates were washed three times with TBST. 100 μl/well POD Chemiluminescence substrate (Roche, cat #: 11582950001) was added immediately prior to reading plate luminescence using a Molecular Devices M5 plate reader with a delay setting of 100 ms.
Variants of TL1A were generated and tested for binding to DR3 and DcR3 by ELISA as described.
B1 was tested, and the EC50 was 281 nM and the “Rel EC50” value was 10.7 ratio (head: nM). B2 was tested, and the EC50 was 39.1 nM and the “Rel EC50” value was 1.5 ratio (head: nM). With B3 the EC50 was 14.8 nM and the “Rel EC50” value was 0.6 ratio (head: nM). B4 was tested, and the EC50 was 284 nM and the “Rel EC50” value was 10.8 ratio (head: nM).

What follows are binders tested against T2, DcR3 (assay: ELISA, DcR3).
For B1, the EC50 was 30.7 nM and the “Rel EC50” value was 6.7 ratio (head: nM). In the case of B5, the EC50 is reported as 2.9 nM and the “Rel EC50” value is reported as 0.6 ratio (head: nM). For B6, the EC50 was 10.8 nM and the “Rel EC50” value was 2.3 ratio (head: nM). For B7, the EC50 was 8.5 nM and the “Rel EC50” value was 1.9 ratio (head: nM). B8 was tested, and the EC50 was 10.5 nM and the “Rel EC50” value was 2.3 ratio (head: nM). For B9, the EC50 was 5.7 nM and the “Rel EC50” value was 1.2 ratio (head: nM). For B10, the EC50 was 8.3 nM and the “Rel EC50” value was 1.8 ratio (head: nM). In the case of B11, the EC50 is reported as 21.5 nM and the “Rel EC50” value is reported as 4.7 ratio (head: nM). For B12, the EC50 was 16.9 nM and the “Rel EC50” value was 3.7 ratio (head: nM). For B13, the EC50 was 17.3 nM and the “Rel EC50” value was 3.8 ratio (head: nM). In the case of B14, the EC50 is reported as 13.5 nM and the “Rel EC50” value is reported as 2.9 ratio (head: nM). For B15, the EC50 was 2.2 nM and the “Rel EC50” value was 0.5 ratio (head: nM). For B16, the EC50 was 8 nM and the “Rel EC50” value was 1.7 ratio (head: nM). In the case of B17, the EC50 is reported as 20.4 nM and the “Rel EC50” value is reported as 4.4 ratio (head: nM). With B18 the EC50 was 34.3 nM and the “Rel EC50” value was 7.5 ratio (head: nM). For B19, the EC50 was 59.5 nM and the “Rel EC50” value was 12.9 ratio (head: nM).
